{"source": "patent US20180171024A1", "about": "(ADICET BIO, published 2018)", "key": {"[1]": {"molecular_target": "T1, HLA-A2/MART1(26) on T2 cells (human)", "T1 construct": "whole, on cells", "assay": "flow cytometry, T2 cells loaded with MART1 peptide"}, "[2]": {"molecular_target": "T2, HLA-A2/MAGE-A4 230-239 complex on cells (human)", "T2 construct": "whole, on cells; also called MAGE-A4 peptide; HLA-A2+/MAGE-A4+ cells", "assay": "flow cytometry, peptide-loaded T2 cells (10^-5 M)"}, "[3]": {"molecular_target": "T3, single-chain recombinant HLA-A2/Tyrosinase369-377 complex (human)", "T3 construct": "also called scHLA-A2/Tyrosinase; HLA-A2/TyrD369-377", "assay": "SPR, IgG captured by anti-mouse IgG, analyte scHLA-A2/Tyrosinase (EM3-TyrD)", "experimental": "(§1) Immobilization of IgG TCR-like antibody was performed on a GLM (General Layer Medium) chip (Bio-Rad Laboratories, Hercules, Calif., USA) at 25° C. in the vertical orientation and the continuous running buffer was PBST (10 mM Na-phosphate, 150 mM NaCl, and 0.005% Tween 20, pH 7.4). Five channels were activated with 50 μl of a mixture of 0.04 M N-ethyl-N′-(3-dimethylaminopropyl) carbodiimide (EDC) and 0.01 M sulfo-N-hydroxysuccinimide (Sulfo-NHS) at a flow rate of 30 μl/min. The anti-mouse or human IgG/NeutrAvidin was diluted in 10 mM sodium acetate buffer pH 4.5 to a final concentration of 25 μg/ml and 150 μl were injected followed by an injection of 150 μl of 1 M ethanolamine-HCl pH 8.5. The IgG TCRL antibody/purified biotinylated single-chain recombinant HLA-A2/Tyrosinase/WT1/MAGE-A4/MAGE-A9/PAP complex ligand was diluted in PBST to 5-10 μg/ml and 90 μl were injected in the vertical orientation with a flow rate of 30 μl/min. The sixth channel remained empty to serve as a reference. […] Running buffer was injected simultaneously in the sixth channel for double referencing to correct for loss of the captured antibodies from the chip sensor surface during the experiment. All binding sensorgrams were collected, processed and analyzed using the integrated ProteOn Manager (Bio-Rad Laboratories, Hercules, USA) software. […]"}, "[4]": {"molecular_target": "T3, single-chain recombinant …", "assay": "SPR (ProteOn), IgG captured via anti-mouse IgG, scHLA-A2/Tyrosinase as analyte; apparent affinity", "experimental": "as §1"}, "[5]": {"molecular_target": "T1, HLA-A2/MART1(26) on T2 cells", "assay": "flow cytometry, peptide-loaded T2 cells (10^-5 M)"}, "[6]": {"molecular_target": "T2, HLA-A2/MAGE-A4 230-239 complex on cells", "assay": "flow cytometry, T2 cells loaded with 10^-4 M peptide"}, "[7]": {"molecular_target": "T4, single-chain recombinant HLA-A2/WT1 126-134 complex (human)", "T4 construct": "also called scHLA-A2/WT1; MHC-WT1 peptide complex", "assay": "SPR (ProteOn), IgG captured via anti-mouse IgG, scHLA-A2/WT1 as analyte", "experimental": "as §1"}, "[8]": {"molecular_target": "T4, single-chain recombinant HLA-A2/WT1 …", "assay": "SPR, B47B6 IgG captured via anti-mouse IgG, analyte scHLA-A2/WT1", "experimental": "Purified IgGs were immobilized indirectly to the SPR sensor chip with anti-mouse. Analyte was purified recombinant single-chain HLA-A2/WT1 complexes generated by in vitro refolding of E. coli expressed scHLA-A2 complexes.\nImmobilization of IgG TCR-like antibody was performed on a GLM (General Layer Medium) chip (Bio-Rad Laboratories, Hercules, Calif., USA) at 25° C. in the vertical orientation and the continuous running buffer was PBST (10 mM Na-phosphate, 150 mM NaCl, and 0.005% Tween 20, pH 7.4). Five channels were activated with 50 μl of a mixture of 0.04 M N-ethyl-N′-(3-dimethylaminopropyl) carbodiimide (EDC) and 0.01 M sulfo-N-hydroxysuccinimide (Sulfo-NHS) at a flow rate of 30 μl/min. The anti-mouse or human IgG/NeutrAvidin was diluted in 10 mM sodium acetate buffer pH 4.5 to a final concentration of 25 μg/ml and 150 μl were injected followed by an injection of 150 μl of 1 M ethanolamine-HCl pH 8.5. The IgG TCRL antibody/purified biotinylated single-chain recombinant HLA-A2/Tyrosinase/WT1/MAGE-A4/MAGE-A9/PAP complex ligand was diluted in PBST to 5-10 μg/ml and 90 μl were injected in the vertical orientation with a flow rate of 30 μl/min. The sixth channel remained empty to serve as a reference. […] All binding sensorgrams were collected, processed and analyzed using the integrated ProteOn Manager (Bio-Rad Laboratories, Hercules, USA) software. […]"}, "[9]": {"molecular_target": "T5, HLA-A2/MAGE-A4-A2 on T2 cells (human)", "T5 construct": "whole, on cells", "assay": "flow cytometry (MFI), T2 cells loaded with Ala-mutated peptide"}, "[10]": {"molecular_target": "T6, HLA-A2/MAGE-A4-A4 on T2 cells (human)", "T6 construct": "whole, on cells", "assay": "flow cytometry (MFI), T2 cells loaded with Ala-mutated peptide"}, "[11]": {"molecular_target": "T7, HLA-A2/MAGE-A4-A5 on T2 cells (human)", "T7 construct": "whole, on cells", "assay": "flow cytometry (MFI), T2 cells loaded with Ala-mutated peptide"}, "[12]": {"molecular_target": "T8, HLA-A2/MAGE-A4-A6 on T2 cells (human)", "T8 construct": "whole, on cells", "assay": "flow cytometry (MFI), T2 cells loaded with Ala-mutated peptide"}, "[13]": {"molecular_target": "T9, HLA-A2/MAGE-A4-A7 on T2 cells (human)", "T9 construct": "whole, on cells", "assay": "flow cytometry (MFI), T2 cells loaded with Ala-mutated peptide"}, "MAGE-A4-A1": {"molecular_target": "T10, MAGE-A4-A1", "T10 construct": "also called HLA-A2/MAGE-A4-A1 on T2 cells", "assay": "alanine scan, flow cytometry, peptide-loaded T2 cells (10^-5 M), antibody 10 µg/ml", "experimental": "(§2) FIG. 55: Epitope specificity determination by Alanine scanning mutagenesis. The mutant MAGE-A4 peptides with alanine substitutions at positions 1, 2, 3, 4, 5, 6, 7, 8 and 9 were synthesized. […] The native and mutant MAGE-A4 peptides were loaded onto T2 cells APCs at a concentration of 10⁻⁵ M for 12 hrs at 37° C. […] MFI values for cells loaded with mutant and wild type peptides were compared. The relative effect of each Ala substitution was expressed as percentage of the binding to native wild-type peptide."}, "MAGE-A4-A3": {"molecular_target": "T11, MAGE-A4-A3", "T11 construct": "also called HLA-A2/MAGE-A4-A3 on T2 cells", "assay": "alanine scan, flow cytometry, peptide-loaded T2 cells (10^-5 M), antibody 10 µg/ml", "experimental": "as §2"}, "MAGE-A4-A8": {"molecular_target": "T12, MAGE-A4-A8", "T12 construct": "also called HLA-A2/MAGE-A4-A8 on T2 cells", "assay": "alanine scan, flow cytometry, peptide-loaded T2 cells (10^-5 M), antibody 10 µg/ml", "experimental": "as §2"}, "MAGE-A4-A9": {"molecular_target": "T13, MAGE-A4-A9", "T13 construct": "also called HLA-A2/MAGE-A4-A9 on T2 cells", "assay": "alanine scan, flow cytometry, peptide-loaded T2 cells (10^-5 M), antibody 10 µg/ml", "experimental": "as §2"}, "MAGE-A4-A10": {"molecular_target": "T14, MAGE-A4-A10", "T14 construct": "also called HLA-A2/MAGE-A4-A10 on T2 cells", "assay": "alanine scan, flow cytometry, peptide-loaded T2 cells (10^-5 M), antibody 10 µg/ml", "experimental": "as §2"}, "[14]": {"molecular_target": "T15, single-chain recombinant HLA-A2/MAGE-A4 230-239 complex (human)", "T15 construct": "also called scHLA-A2/MAGE-A4", "assay": "SPR (ProteOn); text: IgG captured via anti-mouse IgG, scHLA-A2/MAGE-A4 as analyte (FIG. 54 legend: complex on NeutrAvidin, Fab as analyte)"}, "[15]": {"molecular_target": "T2, HLA-A2/MAGE-A4 230-239 complex on cells", "assay": "flow cytometry, peptide-loaded T2 cells (10^-5 M)", "remark": "listed apart in the source"}, "PAP112-A1": {"molecular_target": "T16, PAP112-A1", "T16 construct": "also called PAP A1; HLA-A2/PAP A1 on T2 cells", "assay": "alanine scan, flow cytometry, peptide-loaded T2 cells (10^-5 M), antibody 10 µg/ml"}, "PAP112-A9": {"molecular_target": "T17, PAP112-A9 (Homo sapiens)", "T17 construct": "cell surface;cell surface complex; also called PAP A9; HLA-A2/PAP A9 on T2 cells", "assay": "alanine scan, flow cytometry, peptide-loaded T2 cells (10^-5 M), antibody 10 µg/ml"}}}
{"binder": "906-11-D11 TCR-like antibody (IgG) (antibody, V domains shown, also called Tyr D11) VH: not shown VL: DIQMTQSPSSLSASLGGKVTITCKASQDIHNYIAWYQHKPVKGPRLLIHYTSTLQPGTPSRFSGSGSGRDYSFSISNLEPEDIATYYCLQYDNLWTFGGGTKLEIKR", "values": [{"measurement": "binding result", "setting": "[1]", "value": "no binding (tested: 10 µg/ml)"}, {"measurement": "binding result", "setting": "[2]", "value": "no binding (tested: 10 µg/ml)"}, {"measurement": "Kd", "setting": "[3]", "value": 4.14, "unit": "nM"}, {"measurement": "Kd", "setting": "[4]", "value": 4.1, "unit": "nM"}]}
{"binder": "905-2-D7 TCR-like antibody (IgG) (antibody, V domains shown, also called Tyr D7) VH: QVQLKESGPGLVAPSQSLSITCTVSGFSLTSYGVHWVRQPPGKGLEWLGVIWAGGTTNYNSALMSRLSISRDNSKSQVFLEMNSLQTDDTAIYYCARDGHFHFDFWGQGTTLTVSS VL: DIQMTQSPASLSVSVGETVTITCRASDIIYSNLAWYQQKQGKSPQLLVYAATNLAAGVPSRFSGSGSGTQYSLKINSLQSEDFGTYYCQHFWGSSISFGSGTKLEIKR", "values": [{"measurement": "binding result", "setting": "[1]", "value": "no binding (tested: 10 µg/ml)"}, {"measurement": "binding result", "setting": "[2]", "value": "no binding (tested: 10 µg/ml)"}]}
{"binder": "B47B6 TCR-like antibody (IgG) (antibody, V domains shown, also called WT1 B47B6) VH: EVQLVESGGGLVKPGGSLKLSCAASGFVFSSYDMSWVRQAQEKRLEWVAYMSSGGGTYYPDTVKGRFTISRDNAKNTLHLQMSSLKSEDTAMYYCARHDEITNFDYWGQGTTLTVSS VL: DIVLTQSPATLSVSPGDSVSLSCRASQSISNSLHWYQQKSHESPRLLIKYASQSISGIPSRFSGSGSGTDFTLSINSVETEDFGMYFCQQSYSWPLTFGAGSKLELKR", "values": [{"measurement": "binding result", "setting": "[5]", "value": "no binding (tested: 10 µg/ml)"}, {"measurement": "binding result", "setting": "[6]", "value": "no binding"}, {"measurement": "Kd", "setting": "[7]", "value": 4.4, "unit": "nM"}, {"measurement": "Kd", "setting": "[8]", "value": 4.37, "unit": "nM"}]}
{"binder": "C106B9 TCR-like antibody (IgG) (antibody, V domains shown, also called MAGE-A4 C106B9) VH: QVQLQQSGGEVMKPGASVKLSCKATGYTFTGYWIEWIKQRPGHGLEWIGEILPGSGGTNYNEKFKGKATFTAHTSSNTAYMQLSSLTTEDSAIYYCARDSNSFTYWGQGTLVTVSS VL: QIVLTQSPAIMSASPGEKVTITCSVSSSVDYIHWFQQKPGTSPKFWIYSTSILASGVPARFSGSGSGTSYSLTISRMEAEDAATYYCQQRSSYPPTFGSGTKLEIKR", "values": [{"measurement": "percent decrease in binding vs wild-type peptide", "setting": "[9]", "value": 33, "unit": "%"}, {"measurement": "percent decrease in binding vs wild-type peptide", "setting": "[10]", "value": 90, "unit": "%"}, {"measurement": "percent decrease in binding vs wild-type peptide", "setting": "[11]", "value": 90, "unit": "%"}, {"measurement": "percent decrease in binding vs wild-type peptide", "setting": "[12]", "value": 90, "unit": "%"}, {"measurement": "percent decrease in binding vs wild-type peptide", "setting": "[13]", "value": 90, "unit": "%"}, {"measurement": "% of MAGE-A4 binding", "setting": "MAGE-A4-A1", "value": 106, "unit": "%"}, {"measurement": "% of MAGE-A4 binding", "setting": "MAGE-A4-A3", "value": 1, "unit": "%"}, {"measurement": "% of MAGE-A4 binding", "setting": "MAGE-A4-A8", "value": 168, "unit": "%"}, {"measurement": "% of MAGE-A4 binding", "setting": "MAGE-A4-A9", "value": 79, "unit": "%"}, {"measurement": "% of MAGE-A4 binding", "setting": "MAGE-A4-A10", "value": 4, "unit": "%"}, {"measurement": "Kd", "setting": "[14]", "value": 8.8, "unit": "nM"}]}
{"binder": "D10A3 TCR-like antibody (IgG) (antibody, V domains shown, also called PAP D10A3) VH: EVQLQQFGTELVKPGASVKISCKASGYTFTDYNMDWVKQSHGKSLEWIGDINPNYDTTTYNQKFKGKATLTVDKSSSTAYMELRSLTSEDTAVFYCARRNYGNYVGFDFWGQGTTLTVSS VL: NIVLTQTPKFLLVSAGDRVSITCKASQRVNNDVAWYQQKPGQSPKLLIYYASNRYTGVPDRFTGSGYGTDFTFTISTVQAEDLAVYFCQQDYSSPFTFGSGTKLEIKR", "values": [{"measurement": "binding result", "setting": "[15]", "value": "no binding (tested: 10 µg/ml)"}, {"measurement": "% of PAP112 binding", "setting": "PAP112-A1", "value": 83, "unit": "%"}, {"measurement": "% of PAP112 binding", "setting": "PAP112-A9", "value": 1, "unit": "%"}]}
